Experimental data from the supplement of paper PMC6757056.
± gives the standard deviation of the averaged measurements.

B1: library; a variant is named by its letters at N, in order (parent)
chain: GCUGUCACCGGUGUAUUACCCUAGUGGUCGACCGGUCUGAUGAGUCUNNNNNNAGACGAAACAGC

Legend:
[1] = variants of: B1; test: FACS-Seq fitted mean relative fluorescence mCherry/BFP without ligand (log10 relative fluorescence); ligand: hypoxanthine (xanthine aptamer); higher = higher reporter protein expression; settings: HEK293T, ligand present: no
Summary of the method: (§1)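 Sorting into 6 bins by mCherry/BFP followed 48 h of incubation with or without ligand. The cells were enriched HEK293T libraries lentivirally bearing an mCherry reporter with the ribozyme switch and an EF1α-BFP marker, and bin genomic DNA was PCR-amplified, barcoded and sequenced on MiSeq. Fluorescence is the fitted normal mean of the bin counts. Means were fitted on log10(mCherry/BFP), scaled to five spiked-in control ribozymes.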

[2] = variants of: B1; test: normalized RNA/DNA level with ligand (relative to sTRSVctl = 100) (log10 (% of sTRSVctl)); ligand: hypoxanthine (xanthine aptamer); higher = less ribozyme self-cleavage, higher mRNA level; settings: ligand concentration (+) RNA-Seq: 5 mM, HEK293T, reporter: mCherry (pCS4076), ligand present: yes
Procedure: (§2)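 Hammerhead (sTRSV) ribozyme switch libraries with a ligand aptamer grafted on stem I and a randomized N4-6 loop II, cloned into the 3' UTR of mCherry and transiently transfected into HEK293T cells; RNA-Seq 72 h post transfection with ligand added 1 h before transfection; RNA read count / plasmid DNA read count normalized to the non-cleaving sTRSVctl (x100), log10; sequences with >100 DNA reads. FACS-Seq: lentiviral library sorted into 6 bins after 48 h ligand, log-normal fit mean of mCherry/BFP scaled to controls. Printed sequences are partial switch sequences.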

[3] = variants of: B1; test: normalized RNA/DNA level without ligand (relative to sTRSVctl = 100) (log10 (% of sTRSVctl)); ligand: hypoxanthine (xanthine aptamer); higher = less ribozyme self-cleavage, higher mRNA level; settings: HEK293T, reporter: mCherry (pCS4076), ligand present: no
Procedure: as §2

[4] = variants of: B1; test: FACS-Seq fitted mean relative fluorescence mCherry/BFP with ligand (log10 relative fluorescence); ligand: hypoxanthine (xanthine aptamer); ligand concentration (+) FACS-Seq: 5 mM; higher = higher reporter protein expression; settings: HEK293T, ligand present: yes
Summary of the method: as §1

**Q.** For GCUGUCACCGGUGUAUUACCCUAGUGGUCGACCGGUCUGAUGAGUCUACCAUAAGACGAAACAGC [ACCAUA], which “FACS-Seq fitted mean (log10)” value [1] is on record?
**A.** The value was -0.27 ± 0.052.

**Q.** What about the “normalized RNA/DNA level with ligand (log10)” value [2] of the same variant?
**A.** The value was 1.85 ± 0.049.

**Q.** What about the “normalized RNA/DNA level without ligand (log10)” value [3] of the same variant?
**A.** The value was 1.849 ± 0.01.

**Q.** What about the “FACS-Seq fitted mean (log10)” value [4] of the same variant?
**A.** The value was -0.201 ± 0.13.

**Q.** GCUGUCACCGGUGUAUUACCCUAGUGGUCGACCGGUCUGAUGAGUCUGCCAUGAGACGAAACAGC [GCCAUG] was tested. Which “FACS-Seq fitted mean (log10)” value [1] did it give?
**A.** Its value is 0.392 ± 0.0043.

**Q.** What about the “normalized RNA/DNA level with ligand (log10)” value [2] of the same variant?
**A.** The value was 1.87 ± 0.094.

**Q.** What about the “normalized RNA/DNA level without ligand (log10)” value [3] of the same variant?
**A.** Its value is 1.48 ± 0.15.

**Q.** What about the “FACS-Seq fitted mean (log10)” value [4] of the same variant?
**A.** Its value is 0.683 ± 0.074.

**Q.** What does the source list for GCUGUCACCGGUGUAUUACCCUAGUGGUCGACCGGUCUGAUGAGUCUUCCAUGAGACGAAACAGC [UCCAUG]?
**A.** FACS-Seq fitted mean (log10) [1]: -0.135 ± 0.032; normalized RNA/DNA level with ligand (log10) [2]: 1.88 ± 0.074; normalized RNA/DNA level without ligand (log10) [3]: 1.49 ± 0.025; FACS-Seq fitted mean (log10) [4]: -0.271 ± 0.076

**Q.** Which “FACS-Seq fitted mean (log10)” value [1] does the source give for GCUGUCACCGGUGUAUUACCCUAGUGGUCGACCGGUCUGAUGAGUCUACCAUUAGACGAAACAGC [ACCAUU] here?
**A.** The value was 0.187 ± 0.05.

**Q.** What about the “normalized RNA/DNA level with ligand (log10)” value [2] of the same variant?
**A.** Its value is 1.971 ± 0.015.

**Q.** And the “normalized RNA/DNA level without ligand (log10)” value [3]?
**A.** Its value is 1.839 ± 0.007.

**Q.** What about the “FACS-Seq fitted mean (log10)” value [4] of the same variant?
**A.** Its value is 0.395 ± 0.049.

**Q.** Which results are given for GCUGUCACCGGUGUAUUACCCUAGUGGUCGACCGGUCUGAUGAGUCUCCCCAAAGACGAAACAGC [CCCCAA]?
**A.** FACS-Seq fitted mean (log10) [1]: -0.321 ± 0.081; normalized RNA/DNA level with ligand (log10) [2]: 1.92 ± 0.018; normalized RNA/DNA level without ligand (log10) [3]: 1.78 ± 0.046; FACS-Seq fitted mean (log10) [4]: -0.16 ± 0.025

**Q.** With GCUGUCACCGGUGUAUUACCCUAGUGGUCGACCGGUCUGAUGAGUCUUCCCACAGACGAAACAGC [UCCCAC] as the variant, how does the “FACS-Seq fitted mean (log10)” value [1] read?
**A.** Its value is 0.0771 ± 0.00054.

**Q.** And the “normalized RNA/DNA level with ligand (log10)” value [2]?
**A.** The value was 1.894 ± 0.014.

**Q.** And the “normalized RNA/DNA level without ligand (log10)” value [3]?
**A.** Its value is 1.56 ± 0.017.

**Q.** And the “FACS-Seq fitted mean (log10)” value [4]?
**A.** Its value is 0.177 ± 0.043.

**Q.** How did the “FACS-Seq fitted mean (log10)” value [1] turn out when GCUGUCACCGGUGUAUUACCCUAGUGGUCGACCGGUCUGAUGAGUCUGCCCAGAGACGAAACAGC [GCCCAG] was run?
**A.** Its value is 0.0481 ± 0.032.

**Q.** And the “normalized RNA/DNA level with ligand (log10)” value [2]?
**A.** The value was 1.81 ± 0.052.

**Q.** And the “normalized RNA/DNA level without ligand (log10)” value [3]?
**A.** The value was 1.4 ± 0.027.

**Q.** What about the “FACS-Seq fitted mean (log10)” value [4] of the same variant?
**A.** The value was 0.24 ± 0.019.

**Q.** What does the source list for GCUGUCACCGGUGUAUUACCCUAGUGGUCGACCGGUCUGAUGAGUCUUCCCAGAGACGAAACAGC [UCCCAG]?
**A.** FACS-Seq fitted mean (log10) [1]: 0.261 ± 0.0092; normalized RNA/DNA level with ligand (log10) [2]: 1.84 ± 0.0087; normalized RNA/DNA level without ligand (log10) [3]: 1.35 ± 0.023; FACS-Seq fitted mean (log10) [4]: 0.506 ± 0.016

**Q.** What does the source list for GCUGUCACCGGUGUAUUACCCUAGUGGUCGACCGGUCUGAUGAGUCUUCCCCAAGACGAAACAGC [UCCCCA]?
**A.** FACS-Seq fitted mean (log10) [1]: 0.858 ± 0.055; normalized RNA/DNA level with ligand (log10) [2]: 1.94 ± 0.08; normalized RNA/DNA level without ligand (log10) [3]: 1.82 ± 0.036; FACS-Seq fitted mean (log10) [4]: 0.843 ± 0.088

**Q.** Which “FACS-Seq fitted mean (log10)” value [1] does the source give for GCUGUCACCGGUGUAUUACCCUAGUGGUCGACCGGUCUGAUGAGUCUACCCGGAGACGAAACAGC [ACCCGG] here?
**A.** Its value is 0.195 ± 0.055.

**Q.** What about the “normalized RNA/DNA level with ligand (log10)” value [2] of the same variant?
**A.** The value was 1.89 ± 0.034.

**Q.** What about the “normalized RNA/DNA level without ligand (log10)” value [3] of the same variant?
**A.** Its value is 1.48 ± 0.019.

**Q.** What about the “FACS-Seq fitted mean (log10)” value [4] of the same variant?
**A.** Its value is 0.714 ± 0.058.

**Q.** Which “FACS-Seq fitted mean (log10)” value [1] does the source give for GCUGUCACCGGUGUAUUACCCUAGUGGUCGACCGGUCUGAUGAGUCUUCCCGUAGACGAAACAGC [UCCCGU] here?
**A.** The value was 0.434 ± 0.043.

**Q.** And the “normalized RNA/DNA level with ligand (log10)” value [2]?
**A.** Its value is 1.934 ± 0.0021.

**Q.** And the “normalized RNA/DNA level without ligand (log10)” value [3]?
**A.** The value was 1.703 ± 0.015.

**Q.** What about the “FACS-Seq fitted mean (log10)” value [4] of the same variant?
**A.** Its value is 0.554 ± 0.048.
